The source of these data is patent US20140011214A1.

For test [1], the target named is Antiparallel leucine zipper partner peptide Z′ fused to the C-terminal fragment of superpositive GFP (CspGFP, amino acids 158-231), expressed from pMRBAD-Z′-CspGFP. Nature of the test: cell-based or functional assay.
In test [2] the target is Antiparallel leucine zipper partner peptide Z′ fused to the C-terminal fragment of the stabilized GFP variant sg100 (Csg100GFP), expressed from pMRBAD-Z′-Csg100GFP. Nature of the test: cell-based or functional assay.

Turning to “N-terminal fragment of superpositive GFP (NspGFP, amino acids 1-157) fused to antiparallel leucine zipper peptide Z, expressed from pET11a-Z-NspGFP”, in test [1], the cell fluorescence 1 hour after induction at 25° C., against split-frGFP Z/Z′ fusions (% more fluorescent) stood at 34; the cell fluorescence after 24 hours at 37° C., against split-frGFP Z/Z′ fusions (% more fluorescent) is 24; the maximum mean cell fluorescence, 12 hours at 25° C., against split-frGFP Z/Z′ fusions came out at 22 % brighter; the mean cell fluorescence (flow cytometry), 1 hour after induction at 25° C. is 5 fold. In addition, in test [1], the mean cell fluorescence (flow cytometry), 2 hours after induction at 25° C. stood at 15 fold; the mean cell fluorescence (flow cytometry), 3 hours after induction at 25° C. was 28 fold; the mean cellular fluorescence (flow cytometry) in E. coli after 12 hours at 25° C., compared to uninduced cells amounted to 75 fold.
As for “N-terminal fragment of the stabilized GFP variant sg100 (Nsg100GFP) fused to antiparallel leucine zipper peptide Z, expressed from pET11a-Z-Nsg100GFP”, in test [2], the mean cell fluorescence (flow cytometry), 3 hours after induction at 25° C. was found to be 1.2 fold and the mean cellular fluorescence (flow cytometry) in E. coli after 12 hours at 25° C., compared to uninduced cells came out at 2.3 fold.
